Experimental data: publication PMC5628404, “Central catalytic domain of BRAP (RNF52) recognizes the types of ubiquitin chains and utilizes oligo-ubiquitin for ubiquitylation” (Biochemical Journal, 2017)

B1: BRAP (1–592) (full-length) (natural protein, human, UniProt Q7Z569 1-592, looked up)
chain: MSVSLVVIRLELAEHSPVPAGFGFSAAAGEMSDEEIKKTTLASAVACLEGKSPGEKVAIIHQHLGRREMTDVIIETMKSNPDELKTTVEERKSSEASPTAQRSKDHSKECINAAPDSPSKQLPDQISFFSGNPSVEIVHGIMHLYKTNKMTSLKEDVRRSAMLCILTVPAAMTSHDLMKFVAPFNEVIEQMKIIRDSTPNQYMVLIKFRAQADADSFYMTCNGRQFNSIEDDVCQLVYVERAEVLKSEDGASLPVMDLTELPKCTVCLERMDESVNGILTTLCNHSFHSQCLQRWDDTTCPVCRYCQTPEPVEENKCFECGVQENLWICLICGHIGCGRYVSRHAYKHFEETQHTYAMQLTNHRVWDYAGDNYVHRLVASKTDGKIVQYECEGDTCQEEKIDALQLEYSYLLTSQLESQRIYWENKIVRIEKDTAEEINNMKTKFKETIEKCDNLEHKLNDLLKEKQSVERKCTQLNTKVAKLTNELKEEQEMNKCLRANQVLLQNKLKEEERVLKETCDQKDLQITEIQEQLRDVMFYLETQQKINHLPAETRQEIQEGQINIAMASASSPASSGGSGKLPSRKGRSKRGK
notes: The construct had the tag, a TEV site and a GSSGSSG linker at the N-terminus; after TEV cleavage the linker probably stays on the protein (surmised); also called full-length BRAP; BRAP2; source: cell-free synthesis in E. coli S30 extract, zinc supplemented; purified (MBPTrap, TEV cleavage, ion exchange, gel filtration); not shown: MBP, N-terminal, cleaved
B2: BRAP (124–569) (RNF52 domain) (domain or fragment, human, UniProt Q7Z569 124-569, looked up)
chain: DQISFFSGNPSVEIVHGIMHLYKTNKMTSLKEDVRRSAMLCILTVPAAMTSHDLMKFVAPFNEVIEQMKIIRDSTPNQYMVLIKFRAQADADSFYMTCNGRQFNSIEDDVCQLVYVERAEVLKSEDGASLPVMDLTELPKCTVCLERMDESVNGILTTLCNHSFHSQCLQRWDDTTCPVCRYCQTPEPVEENKCFECGVQENLWICLICGHIGCGRYVSRHAYKHFEETQHTYAMQLTNHRVWDYAGDNYVHRLVASKTDGKIVQYECEGDTCQEEKIDALQLEYSYLLTSQLESQRIYWENKIVRIEKDTAEEINNMKTKFKETIEKCDNLEHKLNDLLKEKQSVERKCTQLNTKVAKLTNELKEEQEMNKCLRANQVLLQNKLKEEERVLKETCDQKDLQITEIQEQLRDVMFYLETQQKINHLPAETRQEIQEGQINIAMASA
notes: The construct had the tag, a TEV site and a GSSGSSG linker at the N-terminus; after TEV cleavage the linker probably stays on the protein (surmised); also called RNF52 domain of BRAP; central catalytic domain of BRAP; source: cell-free synthesis in E. coli S30 extract, zinc supplemented; purified (HisTrap, TEV cleavage, ion exchange, gel filtration)

Molecular target: T1, M1-linked di-ubiquitin chain (M1-Ub2) (human, UniProt P0CG48 1-76; P0CG48 1-76)
T1 construct: ubiquitin unit 1 of 2, joined head to tail (M1 linkage); from polyubiquitin-C (UBC), human; ubiquitin unit 2 of 2, joined head to tail (M1 linkage); One polypeptide of two ubiquitin units joined by a peptide bond G76-M1; also called linear di-ubiquitin; source: E. coli KRX, purified (method of Pickart and Raasi); made in the authors' laboratory
Test: SPR; Biacore 3000; ubiquitin monomer or ubiquitin chains amine-coupled to a CM5 chip; BRAP as analyte, serially diluted; 10 mM HEPES-NaOH pH 7.5, 150 mM NaCl, 0.005% surfactant P20; 25°C
Details: both partners purified

| Binder | binding result | Kd [nM] |
| --- | --- | --- |
| B1 | binds | – |
| B2 | – | 95.1 |
